This note sets out measurements from patent US20260049138A1 (Chugai, published 2026).

This experiment has as its target T1, CD3ε homodimer protein (human, UniProt P07766 23-126, limits assumed).
T1 construct: also called CD3 (CD3ε)
The experiment in a line: SPR Biacore T200, CD3ε homodimer on chip. (SPR reads the build-up and loss of mass on a sensor chip optically.)

Changes are numbered by the printed parent chain. Names may count otherwise.
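Further: Light-chain single-residue variant antibodies injected over amine-coupled CD3ε homodimer on a CM4 chip at 25 °C, bound amount divided by that of the GLS3000-containing antibody.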

T1 sequence (P07766 23-126 limits assumed): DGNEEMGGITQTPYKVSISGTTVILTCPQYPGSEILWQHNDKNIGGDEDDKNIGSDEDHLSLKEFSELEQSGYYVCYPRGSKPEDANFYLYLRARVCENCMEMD

B1: GLS3000 N28W one-arm antibody (antibody, human IgG1, kappa, L234A L235A, N297A, name in Kabat numbering)
heavy: QVQLVESGGGVVQPGRSLRLSCAASGFTFSNAWMHWVRQAPGKGLEWVAQIKAKSNNYATYYAESVKGRFTISRDDSKNSLYLQMNSLKTEDTAVYYCRYVHYGAYYGVDAWGQGTTVTVSSASTKGPSVFPLAPSSKSTSGGTAALGCLVKDYFPEPVTVSWNSGALTSGVHTFPAVLQSSGLYSLSSVVTVPSSSLGTQTYICNVNHKPSNTKVDKKVEPKSCDKTHTCPPCPAPEAAGGPSVFLFPPKPKDTLMISRTPEVTCVVVDVSHEDPEVKFNWYVDGVEVHNAKTKPREEQYASTYRVVSVLTVLHQDWLNGKEYKCKVSNKALPAPIEKTISKAKGQPREPQVYTLPPSRCELTKNQVSLSCAVKGFYPSDIAVEWESNGQPENNYKTTPPVLDSDGSFFLVSKLTVDKSRWQQGNVFSCSVMHEALHNHYTQKSLSLSPDYKDDDDK
chain: EPKSSDKTHTCPPCPAPELLGGPSVFLFPPKPKDTLMISRTPEVTCVVVDVSHEDPEVKFNWYVDGVEVHNAKTKPREEQYNSTYRVVSVLTVLHQDWLNGKEYKCKVSNKALPAPIEKTISKAKGQPREPQVCTLPPSRDELTKNQVSLWCLVKGFYPSDIAVEWESNGQPENNYKTTPPVLDSDGSFFLYSKLTVDKSRWQQGNVFSCSVMHEALHNRYTQKSLSLSP
light: DIVMTQSPLSLPVTPGEPASISCRSSQSLVHSWRNTYLHWYQQKPGQAPRLLIYKVSNRFSGVPDRFSGSGSGTDFTLKISRVEAEDVGVYYCGQGTQVPYTFGQGTKLEIKRTVAAPSVFIFPPSDEQLKSGTASVVCLLNNFYPREAKVQWKVDNALQSGNSQESVTEQDSKDSTYSLSSTLTLSKADYEKHKVYACEVTHQGLSSPVTKSFNRGEC
As to B1, the “ratio of amount bound vs unaltered GLS3000” value (“ratio of amount bound” for short) turned out to be 0.41.

B2: GLS3000 N53H one-arm antibody (antibody, human IgG1, kappa, L234A L235A, N297A, name in Kabat numbering)
heavy: B1 heavy
chain: B1 chain
light: B1 light with W33N, N58H
On to B2, for which the “ratio of amount bound” value was determined as 1.18.

B3: GLS3000 N30Q one-arm antibody (antibody, human IgG1, kappa, L234A L235A, N297A, name in Kabat numbering)
heavy: B1 heavy
chain: B1 chain
light: B1 light with W33N, N35Q
As to B3, the “ratio of amount bound” value worked out at 0.87.

B4: GLS3000 N30Y one-arm antibody (antibody, human IgG1, kappa, L234A L235A, N297A, name in Kabat numbering)
heavy: B1 heavy
chain: B1 chain
light: B1 light with W33N, N35Y
Take B4: the “ratio of amount bound” value was 1.04.

B5: GLS3000 N30P one-arm antibody (antibody, human IgG1, kappa, L234A L235A, N297A, name in Kabat numbering)
heavy: B1 heavy
chain: B1 chain
light: B1 light with W33N, N35P
Take B5: the “ratio of amount bound” value was found to be 0.31.

B6: GLS3000 N30T one-arm antibody (antibody, human IgG1, kappa, L234A L235A, N297A, name in Kabat numbering)
heavy: B1 heavy
chain: B1 chain
light: B1 light with W33N, N35T
For the molecule B6, the “ratio of amount bound” value was found to be 0.29.

B7: GLS3000 N30R one-arm antibody (antibody, human IgG1, kappa, L234A L235A, N297A, name in Kabat numbering)
heavy: B1 heavy
chain: B1 chain
light: B1 light with W33N, N35R
B7: the “ratio of amount bound” value is 1.86.

B8: GLS3000 N53K one-arm antibody (antibody, human IgG1, kappa, L234A L235A, N297A, name in Kabat numbering)
heavy: B1 heavy
chain: B1 chain
light: B1 light with W33N, N58K
Regarding B8, the “ratio of amount bound” value stood at 1.08.

B9: GLS3000 N30K one-arm antibody (antibody, human IgG1, kappa, L234A L235A, N297A, name in Kabat numbering)
heavy: B1 heavy
chain: B1 chain
light: B1 light with W33N, N35K
For B9, the “ratio of amount bound” value came to 1.65.

B10: GLS3000 N53L one-arm antibody (antibody, human IgG1, kappa, L234A L235A, N297A, name in Kabat numbering)
heavy: B1 heavy
chain: B1 chain
light: B1 light with W33N, N58L
As to B10, the “ratio of amount bound” value was found to be 0.56.

B11: GLS3000 N53D one-arm antibody (antibody, human IgG1, kappa, L234A L235A, N297A, name in Kabat numbering)
heavy: B1 heavy
chain: B1 chain
light: B1 light with W33N, N58D
For B11, the “ratio of amount bound” value is 0.34.

B12: GLS3000 N53E one-arm antibody (antibody, human IgG1, kappa, L234A L235A, N297A, name in Kabat numbering)
heavy: B1 heavy
chain: B1 chain
light: B1 light with W33N, N58E
Take B12: the “ratio of amount bound” value was determined as 0.54.

B13: GLS3000 N30W one-arm antibody (antibody, human IgG1, kappa, L234A L235A, N297A, name in Kabat numbering)
heavy: B1 heavy
chain: B1 chain
light: B1 light with W33N, N35W
As for B13, the “ratio of amount bound” value was determined as 0.99.

B14: GLS3000 N30V one-arm antibody (antibody, human IgG1, kappa, L234A L235A, N297A, name in Kabat numbering)
heavy: B1 heavy
chain: B1 chain
light: B1 light with W33N, N35V
Take B14: the “ratio of amount bound” value was 0.61.

B15: GLS3000 N30E one-arm antibody (antibody, human IgG1, kappa, L234A L235A, N297A, name in Kabat numbering)
heavy: B1 heavy
chain: B1 chain
light: B1 light with W33N, N35E
For B15, the “ratio of amount bound” value was determined as 0.44.

B16: GLS3000 N30M one-arm antibody (antibody, human IgG1, kappa, L234A L235A, N297A, name in Kabat numbering)
heavy: B1 heavy
chain: B1 chain
light: B1 light with W33N, N35M
For B16, the “ratio of amount bound” value came out at 0.8.

B17: GLS3000 N53M one-arm antibody (antibody, human IgG1, kappa, L234A L235A, N297A, name in Kabat numbering)
heavy: B1 heavy
chain: B1 chain
light: B1 light with W33N, N58M
As to B17, the “ratio of amount bound” value was found to be 0.62.

B18: GLS3000 N30S one-arm antibody (antibody, human IgG1, kappa, L234A L235A, N297A, name in Kabat numbering)
heavy: B1 heavy
chain: B1 chain
light: B1 light with W33N, N35S
In the case of B18, the “ratio of amount bound” value came out at 0.29.

B19: GLS3000 N53I one-arm antibody (antibody, human IgG1, kappa, L234A L235A, N297A, name in Kabat numbering)
heavy: B1 heavy
chain: B1 chain
light: B1 light with W33N, N58I
With B19, the “ratio of amount bound” value turned out to be 0.5.

B20: GLS3000 N30F one-arm antibody (antibody, human IgG1, kappa, L234A L235A, N297A, name in Kabat numbering)
heavy: B1 heavy
chain: B1 chain
light: B1 light with W33N, N35F
As to B20, the “ratio of amount bound” value is 1.1.

B21: GLS3000 N53P one-arm antibody (antibody, human IgG1, kappa, L234A L235A, N297A, name in Kabat numbering)
heavy: B1 heavy
chain: B1 chain
light: B1 light with W33N, N58P
Turning to B21, the “ratio of amount bound” value stood at 0.81.

B22: GLS3000 N28Y one-arm antibody (antibody, human IgG1, kappa, L234A L235A, N297A, name in Kabat numbering)
heavy: B1 heavy
chain: B1 chain
light: B1 light with W33Y
For B22, the “ratio of amount bound” value came out at 0.26.

B23: GLS3000 N30D one-arm antibody (antibody, human IgG1, kappa, L234A L235A, N297A, name in Kabat numbering)
heavy: B1 heavy
chain: B1 chain
light: B1 light with W33N, N35D
As for B23, the “ratio of amount bound” value was 0.34.

B24: GLS3000 N53G one-arm antibody (antibody, human IgG1, kappa, L234A L235A, N297A, name in Kabat numbering)
heavy: B1 heavy
chain: B1 chain
light: B1 light with W33N, N58G
Consider B24, for which the “ratio of amount bound” value came to 0.76.

B25: GLS3000 N53Q one-arm antibody (antibody, human IgG1, kappa, L234A L235A, N297A, name in Kabat numbering)
heavy: B1 heavy
chain: B1 chain
light: B1 light with W33N, N58Q
For the molecule B25, the “ratio of amount bound” value was 0.77.

B26: GLS3000 N30H one-arm antibody (antibody, human IgG1, kappa, L234A L235A, N297A, name in Kabat numbering)
heavy: B1 heavy
chain: B1 chain
light: B1 light with W33N, N35H
Turning to B26, the “ratio of amount bound” value is 0.98.

B27: GLS3000 N30A one-arm antibody (antibody, human IgG1, kappa, L234A L235A, N297A, name in Kabat numbering)
heavy: B1 heavy
chain: B1 chain
light: B1 light with W33N, N35A
For the molecule B27, the “ratio of amount bound” value came out at 0.5.

B28: GLS3000 N30I one-arm antibody (antibody, human IgG1, kappa, L234A L235A, N297A, name in Kabat numbering)
heavy: B1 heavy
chain: B1 chain
light: B1 light with W33N, N35I
For the molecule B28, the “ratio of amount bound” value turned out to be 0.61.

B29: GLS3000 N53F one-arm antibody (antibody, human IgG1, kappa, L234A L235A, N297A, name in Kabat numbering)
heavy: B1 heavy
chain: B1 chain
light: B1 light with W33N, N58F
Turning to B29, the “ratio of amount bound” value came to 0.69.

B30: GLS3000 N30L one-arm antibody (antibody, human IgG1, kappa, L234A L235A, N297A, name in Kabat numbering)
heavy: B1 heavy
chain: B1 chain
light: B1 light with W33N, N35L
Consider B30, for which the “ratio of amount bound” value is 0.7.

B31: GLS3000 N30G one-arm antibody (antibody, human IgG1, kappa, L234A L235A, N297A, name in Kabat numbering)
heavy: B1 heavy
chain: B1 chain
light: B1 light with W33N, N35G
Take B31: the “ratio of amount bound” value turned out to be 0.47.

B32: GLS3000 N53A one-arm antibody (antibody, human IgG1, kappa, L234A L235A, N297A, name in Kabat numbering)
heavy: B1 heavy
chain: B1 chain
light: B1 light with W33N, N58A
Regarding B32, the “ratio of amount bound” value is 0.61.
